Test results from patent publication US20250361295A1 (ANTENGENE BIOLOGICS, published 2025).

B1: ch44-F10-B6-D4 (antibody, V domains shown)
VH: EVHLVESGGGLVKPGGSLKLSCAASGFTFSSYAMSWVRQTPEKRLEWVATISSGGSYIYYPDSVKGRFTISRDNAKNTLYLQMSSLRSEDTAMYYCARQDWDGGDYYAMDYWGQGTSVTVSS
VL: DIVMTQSPSSLAVSAGEKVTMSCKSSQSVLYSSNQKNFLAWYQQKPGQSPKLLIYWASTRESGVPDRFTGSGSGTDFTLTISSVQAEDLAVYYCHQYLSSLTFGAGTKLELK
B2: h8-B3-F6-H8 (antibody, V domains shown)
VH: EVQLVESGGGLVQPGGSLRLSCAASGFDFSRYWMSWVRQAPGKGLVWIGEINPESSAINYAPSLKDRFTISRDNAKNTLYLQMNSLRAEDTAVYYCATSMTMDYWGQGTLVTVSS
VL: DIQMTQSPSSLSASVGDRVTITCKASQDIKSYLSWYQQKPGKAPKTLIYYATSLAGGVPSRFSGSGSGTDYTLTISSLQPEDFATYYCLQHGESPYTFGGGTKLEIK
notes: humanized antibody of ch8-B3-F6-H8; also called humanized 8-B3-F6-H8
B3: ch2-H8-C9-F7-E2 (antibody, V domains shown)
VH: EVQLQQSGAELVKPGASVKLSCKASGYTFTNYWMHWVKQRPGQGLEWIGEINPSNGRTNYNEKFKSKATLTVDKSSSTAYMQLSSLTSEDSAVYYCARGSLTTVVPFDYWGQGTTLTVSS
VL: DIQMTQTPSSLSASLGGKVTITCKASQDINNYIAWYQHKPGKGPRLLIHYTSTLQPGIPSRFSGSGSGRDYSFSISNLEPEDIATYFCLQYDILLTFGGGTKLEK
B4: ch36-F4-H1-D9 (antibody, V domains shown)
VH: EVKLLESGGGLVQPGGSLKLSCAASGFDFSRYWMIWVRQAPEKGLEWIGEINPDSSTINYTPSLKDKFIISRDNAKNTLYLQMSKVRSEDTALYYCARPYYRYDVGYFDVWGAGTTVTVSS
VL: DIVMTQAPKVLLVSAGDRVTISCKASQSVSNAVVWYQQKPGQSPKLLIFYASNRYTGVPDRFTGSGYGTDFTFSISTVQAEDLAVYFCQQDYSSPWTFGGGTKLEIK
B5: h2-H1-D7-E5-D5 (antibody, V domains shown)
VH: EVQLVESGGGLVQPGGSLRLSCAASGFTFSSFGMHWVRQAPGKGLEWVAYISSGSSSIYYADTVKGRFTISRDNAKNSLYLQMNSLRAEDTAVYYCARGTGTGAMDYWGQGTLVTVSS
VL: DIQMTQSPSSLSASVGDRVTITCRTSQDISNYLNWYQQKPGKAPKLLIYYTSKLHSGVPSRFSGSGSGTDFTFTISSLQPEDIATYFCQQGNTLPWTFGGGTKLEIK
notes: humanized antibody of ch2-H1-D7-E5-D5; also called humanized 2-H1-D7-E5-D5

Legend:
human LILRB4 [1] = biological target: T1, human LILRB4 (human, UniProt Q8NHJ6 22-448); assay: cell-based or functional assay
human LILRA6 protein = biological target: T2, human LILRA6 protein (human, UniProt Q6PI73 24-447, limits assumed); assay: ELISA, LILRA6 protein
T2 construct: protein for ELISA; construct not described; also called hLILRA6 protein

human LILRB4 [2] = biological target: T1, human LILRB4; assay: cell-based or functional assay; remark: listed apart in the source
human LILRB4 [3] = biological target: T1, human LILRB4; assay: cell-based or functional assay; remark: listed apart in the source
human LILRB3 = biological target: T3, human LILRB3 (human, UniProt O75022 24-631); assay: FACS, 293F-hLILRB3 cells
T3 construct: whole, on cells; also called hLILRB3
Description: (§1) The protocol for FACS analysis is described as follows: [0438] (a) Cells were harvested by centrifugation at 300 g for 3 mins. […] (b) The cells were washed for 2 times with FACS buffer by centrifuging at 300 g for 3 mins and the supernatant was discarded. [0440] (c) Cell were resuspended and seeded into assay plate (2×10⁵ cells/well) in 50 μl FACS buffer. […] Cells were incubated with antibodies at 4° C. for 1 hour. […] (d) Step (b) was repeated and the cells were resuspended with 100 μl diluted 2nd antibody, incubated at 4° C. for 1 hour in the dark. [0442] (e) Step (b) was repeated and the cells were resuspended with 100 μl FACS buffer. The cells were kept in dark for FACS analysis.

[4] = biological target: T4, cynomolgus (Macaca fascicularis) LILRB4 (cynomolgus (Macaca fascicularis)); assay: FACS, CHO-S-cynoLILRB4 cells
T4 construct: whole, on cells; also called cynoLILRB4; CHO-S-cynoLILRB4
Description: as §1

human LILRB4 [5] = biological target: T1, human LILRB4; assay: FACS, 293F-hLILRB4 cells
Description: as §1

human LILRB4 [6] = biological target: T1, human LILRB4; assay: ELISA and FACS on 293F-hLILRB4 cells

T2 sequence (Q6PI73 24-447 limits assumed): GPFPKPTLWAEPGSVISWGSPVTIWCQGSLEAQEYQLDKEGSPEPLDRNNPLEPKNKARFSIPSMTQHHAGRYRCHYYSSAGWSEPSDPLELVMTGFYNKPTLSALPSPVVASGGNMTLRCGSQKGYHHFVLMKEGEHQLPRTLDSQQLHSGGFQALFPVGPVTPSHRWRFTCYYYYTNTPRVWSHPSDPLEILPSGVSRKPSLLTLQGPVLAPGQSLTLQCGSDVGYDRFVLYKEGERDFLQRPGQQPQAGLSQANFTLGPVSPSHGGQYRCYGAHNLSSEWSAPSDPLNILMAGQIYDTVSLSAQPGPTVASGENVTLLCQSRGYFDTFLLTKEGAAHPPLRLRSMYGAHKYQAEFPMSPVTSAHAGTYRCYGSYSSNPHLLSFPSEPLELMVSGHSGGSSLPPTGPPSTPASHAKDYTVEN
T3 sequence (O75022 24-631): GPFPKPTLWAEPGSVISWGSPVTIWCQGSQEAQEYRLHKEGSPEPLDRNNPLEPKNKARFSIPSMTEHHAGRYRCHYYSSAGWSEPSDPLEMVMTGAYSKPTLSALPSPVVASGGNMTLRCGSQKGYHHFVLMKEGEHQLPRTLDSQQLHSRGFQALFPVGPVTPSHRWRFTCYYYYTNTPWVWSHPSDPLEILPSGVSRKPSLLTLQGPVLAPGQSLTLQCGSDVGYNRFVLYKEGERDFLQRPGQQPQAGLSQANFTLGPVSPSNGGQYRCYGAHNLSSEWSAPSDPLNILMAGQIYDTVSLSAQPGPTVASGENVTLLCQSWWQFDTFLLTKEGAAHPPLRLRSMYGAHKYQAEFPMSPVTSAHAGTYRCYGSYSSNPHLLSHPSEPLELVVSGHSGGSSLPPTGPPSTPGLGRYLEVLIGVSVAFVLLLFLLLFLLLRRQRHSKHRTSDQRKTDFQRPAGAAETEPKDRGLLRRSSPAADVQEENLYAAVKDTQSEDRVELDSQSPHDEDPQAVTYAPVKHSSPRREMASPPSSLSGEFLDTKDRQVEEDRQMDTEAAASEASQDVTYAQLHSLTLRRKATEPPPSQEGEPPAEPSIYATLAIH

Binder | EC50 (nM), ADCC on THP-1 cells (human LILRB4 [1]) | Max cell cytotoxicity (%), ADCC on THP-1 cells (human LILRB4 [1]) | binding result (human LILRA6 protein) | ADCP (%) at 133.3 nM, macrophages and MV-4-11 cells (human LILRB4 [2]) | FcγR stimulation (TNF-α, pg/mL) (human LILRB4 [3]) | Fold change (Compared to isotype) (human LILRB4 [3]) | binding result (human LILRB3) | EC50 [4] | EC50 (human LILRB4 [5]) | Max MFI (human LILRB4 [5]) | binding result (human LILRB4 [6]) | ELISA(OD450) (human LILRA6 protein)
B1 | 1.43 nM | 0.43% | no binding | 3.12% | 126 pg/mL | 3.97 fold | no binding (tested: up to 66.67 nM) | 103 nM | 0.57 nM | 5470 MFI | – | –
B2 | – | – | – | – | – | – | – | – | – | – | binds | –
B3 | 1.38 nM | 31.1% | – | 9.35% | 310 pg/mL | 9.82 fold | no binding (tested: up to 66.67 nM) | – | 1.23 nM | 41000 MFI | – | 0.576 OD450
B4 | – | 17.9% | no binding | 14.8% | 543 pg/mL | 17.2 fold | no binding (tested: up to 66.67 nM) | – | 1.99 nM | 48200 MFI | – | –
B5 | – | – | – | – | – | – | – | – | – | – | binds | –
